How the values were obtained:
[1] = target: recombinant aggrecan G1G2, P16112
[2] = target: natural type aggrecan (mfd. by Seikagaku Kogyo)

recombinant aggrecan G1G2, P16112, sequence (P16112 20-675): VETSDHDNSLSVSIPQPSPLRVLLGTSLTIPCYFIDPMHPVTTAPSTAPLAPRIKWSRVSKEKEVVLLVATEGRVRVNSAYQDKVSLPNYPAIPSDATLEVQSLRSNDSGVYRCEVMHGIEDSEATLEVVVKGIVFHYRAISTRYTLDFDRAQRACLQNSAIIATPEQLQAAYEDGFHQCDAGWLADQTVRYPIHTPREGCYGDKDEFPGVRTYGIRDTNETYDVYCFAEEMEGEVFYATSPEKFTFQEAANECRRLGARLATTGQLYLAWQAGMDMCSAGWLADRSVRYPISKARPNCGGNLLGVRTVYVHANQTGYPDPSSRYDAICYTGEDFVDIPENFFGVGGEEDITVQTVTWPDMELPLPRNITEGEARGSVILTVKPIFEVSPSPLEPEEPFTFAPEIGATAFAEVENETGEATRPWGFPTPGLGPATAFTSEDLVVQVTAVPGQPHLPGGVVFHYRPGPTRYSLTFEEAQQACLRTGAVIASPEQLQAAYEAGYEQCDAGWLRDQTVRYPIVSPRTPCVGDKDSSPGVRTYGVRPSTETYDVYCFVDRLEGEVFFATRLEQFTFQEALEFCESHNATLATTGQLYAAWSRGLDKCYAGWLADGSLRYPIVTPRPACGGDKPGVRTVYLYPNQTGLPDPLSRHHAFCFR

Protein | aggrecanase activity (method of Example 7-3, neoepitope western blot) [1] | recombinant aggrecan G1G2 degrading activity (western blot, anti-His detection) [1] | cleavage at the aggrecanase site (western blot) [2] | degradation of natural type aggrecan (neoepitope western blot) [2] | cleavage at the aggrecanase site (western blot) [1]
MDTS6Dis (protein) FVSIPRYVETLVVADESMVKFHGADLEHYLLTLLATAARLYRHPSILNPINIVVVKVLLLRDRDSGPKVTGNAALTLRNFCAWQKKLNKVSDKHPEYWDTAILFTRQDLCGATTCDTLGMADVGTMCDPKRSCSVIEDDGLPSAFTTAHELGHVFNMPHDNVKVCEEVFGKLRANHMMSPTLIQIDRANPWSACSAAIITDFLDSGHGDCLLDQPSKPISLPEDLPGASYTLSQQCELAFGVGSKPCPYMQYCTKLWCTGKAKGQMVCQTRHFPWADGTSCGEGKLCLKGACVERHNLNKHRVDGSGSAAADYKDDDDK | the aggrecanase activity was not detected in the culture supernatants in which MDTS6Pro and MDTS6Dis were expressed | – | – | – | –
MDTS6TSP1 protein (protein) FVSIPRYVETLVVADESMVKFHGADLEHYLLTLLATAARLYRHPSILNPINIVVVKVLLLRDRDSGPKVTGNAALTLRNFCAWQKKLNKVSDKHPEYWDTAILFTRQDLCGATTCDTLGMADVGTMCDPKRSCSVIEDDGLPSAFTTAHELGHVFNMPHDNVKVCEEVFGKLRANHMMSPTLIQIDRANPWSACSAAIITDFLDSGHGDCLLDQPSKPISLPEDLPGASYTLSQQCELAFGVGSKPCPYMQYCTKLWCTGKAKGQMVCQTRHFPWADGTSCGEGKLCLKGACVERHNLNKHRVDGSWAKWDPYGPCSRTCGGGVQLARRQCTNPTPANGGKYCEGVRVKYRSCNLEPCPSSASGKSFREEQ | – | degraded fragment of the recombinant aggrecan, which was not found in the control in which only the expression plasmid was introduced, was detected | – | – | –
MDTS6Pro (protein) FVSIPRYVETLVVADESMVKFHGADLEHYLLTLLATAARLYRHPSILNPINIVVVKVLLLRDRDSGPKVTGNAALTLRNFCAWQKKLNKVSDKHPEYWDTAILFTRQDLCGATTCDTLGMADVGTMCDPKRSCSVIEDDGLPSAFTTAHELGHVFNMPHDNVKVCEEVFGKLRANHMMSPTLIQIDRANPWSACSAAIITDFLDSGHGDCLLDQPSKPISLPEDLPGASYTLSQQGSAAADYKDDDDK | the aggrecanase activity was not detected in the culture supernatants in which MDTS6Pro and MDTS6Dis were expressed | – | – | – | –
MDTS6Cys (protein) FVSIPRYVETLVVADESMVKFHGADLEHYLLTLLATAARLYRHPSILNPINIVVVKVLLLRDRDSGPKVTGNAALTLRNFCAWQKKLNKVSDKHPEYWDTAILFTRQDLCGATTCDTLGMADVGTMCDPKRSCSVIEDDGLPSAFTTAHELGHVFNMPHDNVKVCEEVFGKLRANHMMSPTLIQIDRANPWSACSAAIITDFLDSGHGDCLLDQPSKPISLPEDLPGASYTLSQQCELAFGVGSKPCPYMQYCTKLWCTGKAKGQMVCQTRHFPWADGTSCGEGKLCLKGACVERHNLNKHRVDGSWAKWDPYGPCSRTCGGGVQLARRQCTNPTPANGGKYCEGVRVKYRSCNLEPCPSSASGKSFREEQCEAFNGYNHSTNRLTLAVAWVPKYSGVSPRDKCKLICRANGTGYFYVLAPKVVDGTLCSPDSTSVCVQGKCIKAGCDGNLGSKKRFDKCGVCGGDNKSCKKVTGGSAAADYKDDDDK | the aggrecanase activity was detected in the culture supernatant in which MDTS6Cys was expressed | – | the recombinant aggrecan G1G2 and the natural type aggrecan are cleaved off at the site between Glu373-Ala374 ... by MDTS6Cys | a band of 80 to 90 KDa was detected in the case of MDTS6Cys in addition to a band of about 150 KDa | the recombinant aggrecan G1G2 and the natural type aggrecan are cleaved off at the site between Glu373-Ala374 ... by MDTS6Cys

— patent publication US20040142445
